Test results reported in the nanobody polyreactivity screen of Harvey et al. (2022).

Assay: yeast display, Sf9 membrane polyspecificity reagent, FACS + sequencing; frameworks hold sequencing errors
Method in brief: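 After 36–48 hours of galactose induction, yeast (Saccharomyces cerevisiae BJ5465) displaying a synthetic nanobody library were stained at 4 °C for 1 hour with 10% biotinylated, detergent-solubilized Sf9 membrane reagent. Streptavidin microbeads enriched the stained cells before FACS sorting into low and high (top ~1%) gates on anti-HA and streptavidin fluorescence. Each clone's polyreactivity label reflects its gate of origin.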

Row | Sequence | polyreactivity (PSR sort gate)
1 | QVQLVESGGGLVQAGGSLRLSCAASGSTFDSYGMGWYRQAPGKERELVGSISSRGGSTYYADSVKGRFTISRDNAKNTVYLQMNSLKPEDTAVYYCAAEWLSWFHGYGMYYWGQGTQVTVSS | low polyreactivity
2 | QVQLVESGGGLVQAGGSLRLSCAASGSTFDTYAMGWYRPAPRKERELLAAISRSGTSTYYADSVKGRFTISRDNAKNTVYLQMNSLKPEESAVYYCAAYGPRVNGEIGREYYYWGQGTQVTVSS | low polyreactivity
3 | QVQLVESGGGLVQAGGSLRLSCAASGSTFDVNAMGWYRQAPGKERELVADITSGGSTNYADSVKGRFTISRDNAKNTVYLQMNSLKREDTAVYYCARDDWFGFIRVQEMDYWGQGTQVTVSS | low polyreactivity
4 | QVQLVESGGGLVQAGGSLRLSCAASGSTFDVNAMGWYRQAPGKERELVAVITSGGSTNYADSVKGRFTISRDNAKNTVYLQMNSLKPEDTAVYYCAKDSRTLYDYWGQGTQVTVSS | low polyreactivity
5 | QVQLVESGGGLVQAGGSLRLSCAASGSTFDVYAMGWYRQAPGKERELVAAISFSSGSTYYADSVKGRFTISRDNAKNTVYLQMNSLKPEDTAVYYCAARTYRYPYWGYDYWGQGTQVTVSS | high polyreactivity
6 | QVQLVESGGGLVQAGGSLRLSCAASGSTFDVYAMGWYRQAPGKERELVAAISLGTGITYYADSVKGRFTISRDNAKNTVYFQMNSLKPEDTAVYYCAVAIETGYGAYDGYIYYYWGQGTQVTVSS | high polyreactivity
7 | QVQLVESGGGLVQAGGSLRLSCAASGSTFDVYAMGWYRQAPGKERELVATISWIGGSTYYADSVKGRFTISRDYAKKTVYLQMNSLKPEDTAVYYCAAESSPLEYDYWGQGTQVTVSS | low polyreactivity
8 | QVQLVESGGGLVQAGGSLRLSCAASGSTFDVYAMGWYRQATGKERELVAVINTSGTRTYYADSVKGRFTISRDNSKNTVYLQMISLKPEDTAVYYCNAGGHLEMNYWGEGTQVTVSS | low polyreactivity
9 | QVQLVESGGGLVQAGGSLRLSCAASGSTFDVYARGGYRQAPGKERELVAAITSGGTTNYADSVKGRFTLSRDNAKNTVYLQMNSLKPEDTAVYYCAKDSRNVYWDYGYWGQGTQVTVSS | low polyreactivity
10 | QVQLVESGGGLVQAGGSLRLSCAASGSTFDWYAMGWYRQAPGKERELVAAISSDDSTYYADSVKGRFTISRDNAKNTVYLQMNSLKPEDTAVYYCAVDVYSDYGDYGYWGQGTQVTVSS | low polyreactivity
11 | QVQLVESGGGLVQAGGSLRLSCAASGSTFDWYAMGWYRQAPGKERELVAAITSGGSTYYADSVKGRFTISRDNAKNTVYLQMNSLKPEDTAVYYCAAESRQVRYILYYYWGQGTQVTVSS | low polyreactivity
12 | QVQLVESGGGLVQAGGSLRLSCAASGSTFDWYVMGWNRQAPGKETELVAAINQGSGSTYYADSVKGRFTISRDNAKNPVYLQMNSLKPEDTAVYYCAADRYGAGYLYWPYDYWGQGTQVTVSS | low polyreactivity
13 | QVQLVESGGGLVQAGGSLRLSCAASGSTFDYNDMGWYRQAPGKERELVASITFSGGTYDADSVKGRFTISRDNAKTTVYLQMNSLTPEDTAVYYCNAVYFFYIDPWNSYPTYDYWGQGTQVTVSS | high polyreactivity
14 | QVQLVESGGGLVQAGGSLRLSCAASGSTFDYNTMGWYRQAPGKERELVAAINNSGGSTYYADSVKGRFTISRDNAKNTVYLQMNSLKPEDTAVYYCAAVSYRRHFGPYNYWGQGTQVTVSS | low polyreactivity
15 | QVQLVESGGGLVQAGGSLRLSCAASGSTFDYYAMGWYRPAPGKERELVAAISRRGGGTYYADSVKGRFTISRDNAKNTVYLQMNSLKPEDTAVYYCAKAVKYPTKALAVGYWGQGTQVTVSS | high polyreactivity
16 | QVQLVESGGGLVQAGGSLRLSCAASGSTFDYYAMGWYRQAPGKERELVAAISGSGDRTYYADSVKGGFTISRDNAKNTVYLQMNSLKREDTAVYYCAKYGRTRFYYWGQVTQVTVSS | high polyreactivity
17 | QVQLVESGGGLVQAGGSLRLSCAASGSTFDYYAMGWYRQAPGKERELVAAITWSGGTTYYADSVKGRFTISRDNAKNTVYLQMNSLKPEDTAVYYCAAESTLPIIDRDDYWGQGTQVTVSS | low polyreactivity
18 | QVQLVESGGGLVQAGGSLRLSCAASGSTFDYYAMGWYRQTPGNDRELVAALSWSGGSTYYADSVKGRFTISRDNAKNTVYLQMNSLKPEDTAVYYCATGTYCPRYNYFEGYYWGQGTQVTVSS | high polyreactivity
19 | QVQLVESGGGLVQAGGSLRLSCAASGSTFDYYDMGWYRQAPGKERELVATITSGGSTNYADSVKGRFTISRDNAKNTVYLQMNSLKPEDTAVYDCAADIGGDGEGYDYWGQGTQVTVSS | low polyreactivity
20 | QVQLVESGGGLVQAGGSLRLSCAASGSTFEANAMGWYRQAPGKERELVAVITRTGGSTYYADSVKGRFTISRDNAKNTVYLQMNSLKPVDTAVYYCAADGVVPGRFFWPAHEYDYWGQGTQVTVSS | low polyreactivity
21 | QVQLVESGGGLVQAGGSLRLSCAASGSTFEAYAMGWDRQAPGKERELVAAISYSGSSTYYADSVKGRFTISRDNAMNSVYLQMHRLKPEDTALTYCAARASKGRRMGYWGQGTQVTVSS | low polyreactivity
22 | QVQLVESGGGLVQAGGSLRLSCAASGSTFEAYAMGWYRQAPGKERELVATITGSGGRTYADSVKGRFTITRDNAKNTVYLQMNSLKPEDTAVYYCAADCLKVAEYDYWGQGTQVTVSS | low polyreactivity

Row | Sequence | polyreactivity (PSR sort gate)
23 | QVQLVESGGGLVQAGGSLRLSCAASGSTFEGNDMGWYRQAPGKERELVAAITTGAGTNYADSVKGRFTISRDNAKNTVYLQMNSLKPEDTAVYYCATRVYWYYDPYYSKYTYDYWGQGTQVTVSS | low polyreactivity
24 | QVQLVESGGGLVQAGGSLRLSCAASGSTFEGYAMGWYRQAPGKERELVAVISSGSITKYADSVKGRFTISRDNAKNTVYLQMNSLKQEDTAVYYCAADWTYVRFDYWGQGTQVTVSS | low polyreactivity
25 | QVQLVESGGGLVQAGGSLRLSCAASGSTFEIYAMGWYRQAPGKERELVAAIDFSGGSTYYADSVKGRFTISRDNAKKTLYLQMNSLKPEDTAVYYCAVDSASDTIYDYWGQGTQVTVSS | low polyreactivity
26 | QVQLVESGGGLVQAGGSLRLSCAASGSTFEIYAMGWYRQAPGKERELVATITWSGGSTYYADSVKGRFTISRDNAKNTVYLQMNSLKPEDTAVYYCAAESIYYPVAQYYYSFEYWGQGTQVTVSS | low polyreactivity
27 | QVQLVESGGGLVQAGGSLRLSCAASGSTFEIYVMGWYRQAPGKERELVAAISRVGNTSYADSVKGRFTISRDNAKNTVYLQMNSLKPEDTAVYYCAADAPSWYDRQYDYWGQGTQVTVSS | low polyreactivity
28 | QVQLVESGGGLVQAGGSLRLSCAASGSTFELYAMGWYRQAPGKERELVASITGDSTNYADSVKGRFTISRDNAKNTVYLQMNSLKPEDTAVYYCAKPYYDGRTHFDSWGQGTQVTVSS | low polyreactivity
29 | QVQLVESGGGLVQAGGSLRLSCAASGSTFEPYAMGWYRQAPGKERELVAAISWSGGSTYYADSVKGRFTISRDNAKNTVYLQMNSLQPEDTAVYYCAAESGVPYYLPVVIYYYWGQGTQVTVSS | high polyreactivity
30 | QVQLVESGGGLVQAGGSLRLSCAASGSTFEPYAMGWYRQAPGKERELVATITLRGGTTNYADSVKGRFTISRDNAKNTVYLQMNSLKPEDTAVYYCNARKLTGYIRYRTGKMNYWGQGTQVTVSS | high polyreactivity
31 | QVQLVESGGGLVQAGGSLRLSCAASGSTFERYAMGWYRQAPGKERELVAAITWGGGSTNYADSVKGRFTISRDNAKNTVYLQMNSLKPEDTAVYYCAREWRTRIYYYWGQGTQVTVSS | low polyreactivity
32 | QVQLVESGGGLVQAGGSLRLSCAASGSTFEVYAMGWYRQAPGKEREMVAAINSRGTSTYYADSVKGRFTISRDNEKNTVYIQMNSLKPEDTAVDFCAARHVYYSGYDYWGQGTQVTGSS | low polyreactivity
33 | QVQLVESGGGLVQAGGSLRLSCAASGSTFEYNAMGWYRQAPGKEREFVAASSRTGSRTYYADSVKGRFTISRDNAKHTVYLQMNSLKPEDTAVYYCAVSVPYGMDYWGQGTQLTVSS | high polyreactivity
34 | QVQLVESGGGLVQAGGSLRLSCAASGSTFEYNAMGWYRQAPGKERELVAAISRTANANYADSVKGRFTISRDNAKNTFYLQMNSLKPEETAVYYCAADFLDSKVHVRFGYWGQGTQVTVSS | low polyreactivity
35 | QVQLVESGGGLVQAGGSLRLSCAASGSTFEYYAMGWYRQAPGKEREFVAAITSTGGSTHYADSVKGRFTISRDNAKNTVYLQMNSLKPEDTAVYVCGKRSYGQTRAYSAGNYWGQGNQVTVSS | low polyreactivity
36 | QVQLVESGGGLVQAGGSLRLSCAASGSTFEYYAMGWYRQAPGKERELVAAISTGGSTYYADSVKGRFTISRDNAKNTVYLQMNSLKPEDTAVYYCAALYRTSYVRMGYWGQGTQVTVSS | high polyreactivity
37 | QVQLVESGGGLVQAGGSLRLSCAASGSTFFFNAMGWYRQAPGKERELVAAITGSGGSTYYADSVKGRFTISRDNAKNTVYLQMNSLKPEDTAVYYCNASSPYDYDWGQGTQVTVSS | low polyreactivity
38 | QVQLVESGGGLVQAGGSLRLSCAASGSTFFFNAMGWYRQAPGKERELVAAITVRSGSTYYADSVKGRFTISRDNAKSTVYLQMNSLKPEDTAVYFCAADYSPGRSVVDYWGQGTQVTVSS | low polyreactivity
39 | QVQLVESGGGLVQAGGSLRLSCAASGSTFFFYAMGWYRQAPGKERELVAAISSGGTTDYADSVKGRFTISRDNAKNTVYLQMNSLKPEDTAVYYCAATYVYWTWGYDYWGQGTQVTVSS | low polyreactivity
40 | QVQLVESGGGLVQAGGSLRLSCAASGSTFFGNAMGWYRQAPGKERELVAAITSGGSTNYADSVKGRFTFSRDNAKNTVSLQMNSLKPEDTAVYDCAKPSRWGWTGFYAYDYWGQGTQVTVSS | low polyreactivity
41 | QVQLVESGGGLVQAGGSLRLSCAASGSTFFGYAMGWYREAPGKERELVAAISSRGGSTYYADSVKGRFTISRDNAKKTVYLQMNSLKPEDTAVYYCNKVYHYPYYYWGQGTQVTVSS | high polyreactivity
42 | QVQLVESGGGLVQAGGSLRLSCAASGSTFFGYAMGWYRQAPGKERELVAAITSGGSTNYADSVKGRFTISRDNAKNTVYLQMNRLIPDDTAVYFCARRWYRGYGYWGQGTQVTVSS | high polyreactivity
43 | QVQLVESGGGLVQAGGSLRLSCAASGSTFFIYAMGRYRQAPGKERELVAAISGSGGTTYYADSVKGRFTISRDNAKNTVYLQMNSLKPEDTAVYYCAARTFSAFWRGGYDYWGQGTQVTVSS | low polyreactivity
